Laboratory results: the supplement of paper PMC9170038

System: K4 kissing-loop RNA reporter
Test: apparent KD of K4 kissing-loop reporter; higher = weaker reporter binding
Conditions: Eterna round: R107
Experimental: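 RNA-MaP round R107: designed RNA switches with theophylline, tryptophan, arginine or FMN aptamers are transcribed on-chip within common flanks. They are titrated with a labelled K4 kissing-loop RNA reporter in RNA-MaP buffer (100 mM Tris pH 7.5, 80 mM KCl, 4 mM MgCl2), without ligand or with the indicated ligand. Median apparent KD per design.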

[1] = input ligand: theophylline 20 uM
[2] = input ligand: tryptophan 2.4 mM
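Note: bound reporter read as fluorescence of individual clusters on recovered sequencing chips by microscopy, with normalized cluster intensities fitted with a binding model.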

Sequence	apparent KD of K4 kissing-loop reporter (input ligand: FMN 200 uM) [nM]	apparent KD of K4 kissing-loop reporter (input ligand: arginine 13.2 mM) [nM]	apparent KD of K4 kissing-loop reporter (input ligand: none) [nM]	apparent KD of K4 kissing-loop reporter [1] [nM]	apparent KD of K4 kissing-loop reporter [2] [nM]
AUGCGCGCGGCGGCCGCCACUCGCAUGAGAGUGAUGUUCUCGCCGGGCCCGGAAGGGCCCGGUGUGAGGACCGGGCCGGGCUGCG [#2 Same State - Tryptophan B Attempt #17 (HarryS)]	121	73.2	175	278	344
UGUCAUUGGUCGGCCGCCACUUCAUAAAGAGUGAUGUUCUGAAAGACGGAUCGAAAGAUCUGUCGAAGGACCGGGACCGAUGACU [FiskerMod 1 - Jieux - Same State - Tryptophan B]	1160	1200	2080	1430	236
GUGUGUGUCGGAGGAUAUGCGGUGGGUGUGGGCGGAUUAGUGAUGUUGGUUGUGGUGGUGGUGGGUGUAGAAGGUUGGUGUGUGU [RHig 3/7 C]	710	350	738	400	444
UAGUGAUGCUAUGUUAGGUUUUUUAGGGAAGGAGCGCCAAAGAAGGCAGGUAGGUCGCCCUAUAUUCCCAGUGAUGUUGGGUAUU [Skye_Ex_AA]	64.8	50.6	74.9	93.6	65.5
GGUAGCAUGGCGGCCGCCACUAGAUCAGUGAUGUUGAUCCCGCCGUCUUACGGCGAGUCAGAGGCUAGGACCGGGCCAUGCUACC	601	318	490	590	963
AUUUUGGUUUAGAGUGAUGUUCCUUGUAUUCGAGGACCGGUACGGCCGCCACUCGAAUAGAAAAGAAAAGAAAUGUUUGAUUUUU [BDazzled - #7 SS Tryptophan A]	406	211	556	351	361
UGAGUUUGAGUGAUGUUCAGGCAUUGGUACGAGGAUAUCGAGGAGUUGAGAAGGCGUACUGCUCAACUUUGUAUGAAUACAUACA [FMN A Ex t2b]	259	73.4	106	117	103
CCCAAAAUAUGCAGUGAUGUUGCAACUGAUACCAGUAUCGAAAGAUACCCUUGGCAGCGGAAAACCGCUACGUAAUUUAAAAGGG [Ex Theophylline A K4 18]	200	292	255	340	187
CUAUCCCGCCGUGUAUGUAGUAUACGGUGCCGAGGACCGGUACGGCCGCCACUCGAUAAGCUUUGUCGGAGUGAUGUUCCGACCG [Soleesen]	277	181	213	263	265
UUUUUAAUCGCAGAUACCAGUCCAGAAUAAAUACUAUAGUGAUGUUAUAUAUAAGGAAAGGACCCUUGGCAGCUGUACUAUAUUU [AstrosSsTheB#8]	411	322	392	245	346
AGCAGUGAUGUUGCAUUUAUAAAGACCGAUACCAGUAUCGAUAGAUACCCUUGGCAGCGGAUUUCCGCAACGACUAGGAAACUAG [Ex Theophylline A K4 13]	404	423	399	466	270
AAAUAGAUCAGUCACCCAGUGAUGUUGGAAGGAGCGUGCGAAAGCACAGGUAGGUCGCCAAAAUAAAAUUGGCUGAUCAAAAUAA	304	310	361	485	195
CGGUAGUCUAUAGGGUCCAGUGAUGUUGGACAGGAUAUGCUACGCCGCAGAAGGGUCCAACUGGUUGUGAAGUUGGCUACUAGGC [Somaaxe]	144	200	168	147	189
UGUGUUUACCUGACUCAGUGAUGUUGAGAAGGAGCGUGAGAAAUCACAGGUAGGUCGCUCAACCUAAAUUCAGGUGAGCACUAAA	268	197	325	277	253
GACAUCUAUCGCCGAUAGUGUUUAUCUUGGGAGGAUAUGUCAGCGGACAGAAGGCCCAGUGAUGUUGGGUAGAUGACCGUUGCUU [Edbiza]	242	114	135	127	120
UACCUGCUGUCAGGAUAUGAGUGCAGUGAUGUUGCACUCAACGUAACCAUCUUGAAAUACAAACACUCAGAAGGGACGCACGAAG [Isattema]	183	95.9	140	167	191
GCGCGGCUCAGUGAUGUUGAGCCUCGGAAACGAGGACCGGUACGGCCGCCACUCGUCCGCGCAGCUGAGGCAAAAGCCUCGGCAA [Omei KL Tryp A SS B v1]	284	276	319	334	261
AAUAUAAAGCAGUGAUGUUGCUUAUGAGAAGGAGCGCACGAAAGUGCAGGUAGGUCGCUCAGCCAAGUGGACGAAAACGUCCACA [whbob_SS_Arginine_A_sa106]	82.1	92.5	86.3	85.3	72.1
CUCGAGUGAUGUUCGAUUAUUUAUACAGAUACCAGUGAAUUUUAACACCCUUGGCAGCUGGUUGUAUCUUUGUUUUUUACACAAG [JR_ExcTheophyA_Sub006]	117	177	118	172	107
CUGGUGCUGAUGCGGUGGCCGGUGGUCGUGCGAGGACCGGUACGGCCGCCACUCGCAUGAGUGAUGUUCAUGUGUCGUCGUCGUC [whbob_EX_Tryp_A_t1]	212	134	181	176	217
AAUAAAAUCACGGCCGCCACUGAUGCUAAUAUUAGCAGUGAUGUUGCUAUGUAUAUUUUAUUUAACAGGACCGGGUGAAUAUUUA [JR_ExcTryptoB_Sub014]	225	184	228	212	133
GAAAGAAAGUAUGAUACCAGACACCCGAGUGAUGUUCGGAGCAGUGUGAUGUUCUUUUAAGUCCCUUGGCAGCAUAAAAGAAAAG [whbob_SS_Theo_B_sa84]	122	142	126	101	91.7

Sequence	apparent KD of K4 kissing-loop reporter (input ligand: FMN 200 uM) [nM]	apparent KD of K4 kissing-loop reporter (input ligand: arginine 13.2 mM) [nM]	apparent KD of K4 kissing-loop reporter (input ligand: none) [nM]	apparent KD of K4 kissing-loop reporter [1] [nM]	apparent KD of K4 kissing-loop reporter [2] [nM]
AAAUUUAAUAUAUUUAAUUAAUUAUGUGAUACCAGACAUUUAUAAGUCCCUUGGCAGCACUUUGCAGUGAUGUUGCAUAUAAUAA [JR_SSTheophyA_Sub013]	89	185	121	157	99.2
GGAGAGGUCUUGUUUGGAUGUGUUUAAUGGCGAGGACCGGUACGGCCGCCACUCGGGUGAUGUUAGUGAUGUUGAUGUUGUGAUG ['oo'mullin]	137	131	125	219	116
GCUAUGGUAGGAAGGAGCGCUACUUUGUUUUUACGAGUGAUGUUCGGAAGCAGAGUGUUAAAGCAGGUAGGUCGCCUACUAUAGC [Arginine B K4 20]	171	154	171	181	197
GGGCGUUACGGAGUGAUGUUCCGUAGCGAUACCAGCCAUUGCGAUGGCCCUUGGCAGCGCUAUAAGCAUAGAAUUGUAGCGCUUA [Theo A Ex t7b]	109	94.1	108	102	105
AGACUACCACACUGUCAAUAGACAGUGUACUAGGAUAUGCUGAUAAGCAGAAGGAGUGAUGUUCCUUGGUAGUCAAUAAAAUAAU [FmnAX 13 U28+U67]	357	237	258	268	238
CCAUCGCUAUUCGAUACCAGUCAUAAAAUCUUUGGUUAAAUAAAGGAGUGAUGUUCCAAAGACCCUUGGCAGCGAAUAGUGAUGG [Theophylline B K4 6]	670	624	695	887	780
AAAUUCUUUUUUUUAUUUAACUUUUCAGAAGGAGCGUGGUAGUACACAGGUAGGUCGCUGAAUUUUGGACUAGUGAUGUUAGUUA [JR_SSArginiA_Sub007]	156	154	158	228	153
AUGGCACGACUUGCCCACAAUGUCUAUGCCCGAGGACCGGUACGGCCGCCACUCGGAUGCCGUGUCUUAUUAGUGAUGUUGAUAC [theeternabot_sameState_KL_Trp_A_4]	355	204	411	355	199
UGUAUGUGAUUUGAUACCAGACCAGGUGGAGGAAUCUGAGUGAUGUUCAGGUAGGUUUGGGUCCCUUGGCAGCAAAUCGCAUACU [KL-SSTheoB18]	173	136	149	176	158
GCCUGGGCACGAAGGAGCGCCGUGACAGGUUACUGCCGUGGGCAGUGAUGUUGCUCAAUCUGGCAGGUAGGUCGCGUGCCCAGGC	137	86	184	107	121
GAUGUCUAGAGAUCAUCUAGACACCUAGAUACCAGCAGAUAUAUCUGCCCUUGGCAGCUAGAACCAGUGAUGUUGGUAUAUGCUC [Theo A SS t3]	259	256	307	360	229
AUUUUUUUGUCAGGAUAUUAGUGUUGGUUUGGUUUGUUAGUGAUGUUGAUAUUUGUUUUAUGUAUUUAAGAAGGGAUUUAGCGGU [wxooemullin]	420	379	364	458	293
GAACGGAGUGAUGUUCCGUUGACGAUCCUACGAGGACCGGUACGGCCGCCACUCGUAUUGCAGUGAUGUUGCAACCAGCCGUACU [Exclusion Tryptophan A GF 10]	104	112	102	106	87.9
CGCUCGAAAAUUAAGUGAGUGAUGUUCACUCGAGGACCGGUACGGCCGCCACUCGUCUUACGUUGAGACACUGCUCGUACUCAUA [theeternabot_exclusion_KL_Trp_A_38]	683	674	900	722	498
GUGAAGGAGCAGCAGUGAUGUUGCUGAGACUAGGAUAUCAGGAAACUGAGAAGGAGUCAACUCCUUCACCUAGACUGCAACAUAA [KL-SSFMN-A13]	173	167	180	249	152
GGAUAGGACAGAGGAUAUGGUAGUGAUGUUACCAAACUGGUUACUAAUGUCAGAAAACUGGCAAAUCCAGAAGGCUGUCCUAUCG [KL-XFMN-B13]	278	76.3	85.2	69.5	82.3
AAAUCGUUCAGAAGGAGCGUGGUAUAAUCAUUAAUAUUUAUUACGAGUGAUGUUCGUAAUUCACAGGUAGGUCGCUGAUCGAUAA [JR_SSArginiB_Sub006]	88.6	94.6	86	99.8	82.7
UUAAUAAUUCAAGGAUAUGUUUUCUAUUUCGAGUGAUGUUCGGAAUUAAUAAAUUUAAAAGAUUAUACAGAAGGUGAUGGAUAGU [Cynwulf-mod#4]	114	117	109	129	90.3
AUUAAUUUCAGAGGAUAUCGUUAUUUUUUAUAGUAUAUUCAAUUAUGCAGUGAUGUUGCUAUUAAUCGAGAAGGCUGAUUUAUAA [JR_ExcFMNB_Sub002]	179	204	156	250	112
AACUGUCAAGGACAACAUUACUGAGGUGAUACCAGCAUCGAAAGAUGCCCUUGGCAGCACUAACUUGCAGUGAUGUUGCAAGUAA [BrourdMod 2 - Jieux - Exclusion - Theophylline A]	211	173	193	197	206
UAUCAGAUUACUGAUACCAGUCUAAAGACAGUGAUGUUGUCUGAUCGACCACGAUCAAAGGACCCUUGGCAGCAGUGUACUAUUC [#29 K4 Theophylline B Same State]	197	203	192	188	199
AACAGCAAUGCGGCCGCCACUUCGAGGUCAGUGAUGUUGACGGAAUUAAAUAAAGAUCCCAAGAGGAGGACCGGGCAGUGCUGUU [whbob_SS_Tryp_B_t25]	468	465	499	410	289
